These results are taken from patent US20240101645A1 (HENRY M JACKSON FOUNDATION FOR THE ADVANCEMENT OF MILITARY …, published 2024).

Where a chain is given by its changes, count along the chain named.

The labels stand for the following.
T1: MERS-CoV spike antigens (bead panel) (MERS-CoV, UniProt K9N5Q8 18-1296)
T1 sequence: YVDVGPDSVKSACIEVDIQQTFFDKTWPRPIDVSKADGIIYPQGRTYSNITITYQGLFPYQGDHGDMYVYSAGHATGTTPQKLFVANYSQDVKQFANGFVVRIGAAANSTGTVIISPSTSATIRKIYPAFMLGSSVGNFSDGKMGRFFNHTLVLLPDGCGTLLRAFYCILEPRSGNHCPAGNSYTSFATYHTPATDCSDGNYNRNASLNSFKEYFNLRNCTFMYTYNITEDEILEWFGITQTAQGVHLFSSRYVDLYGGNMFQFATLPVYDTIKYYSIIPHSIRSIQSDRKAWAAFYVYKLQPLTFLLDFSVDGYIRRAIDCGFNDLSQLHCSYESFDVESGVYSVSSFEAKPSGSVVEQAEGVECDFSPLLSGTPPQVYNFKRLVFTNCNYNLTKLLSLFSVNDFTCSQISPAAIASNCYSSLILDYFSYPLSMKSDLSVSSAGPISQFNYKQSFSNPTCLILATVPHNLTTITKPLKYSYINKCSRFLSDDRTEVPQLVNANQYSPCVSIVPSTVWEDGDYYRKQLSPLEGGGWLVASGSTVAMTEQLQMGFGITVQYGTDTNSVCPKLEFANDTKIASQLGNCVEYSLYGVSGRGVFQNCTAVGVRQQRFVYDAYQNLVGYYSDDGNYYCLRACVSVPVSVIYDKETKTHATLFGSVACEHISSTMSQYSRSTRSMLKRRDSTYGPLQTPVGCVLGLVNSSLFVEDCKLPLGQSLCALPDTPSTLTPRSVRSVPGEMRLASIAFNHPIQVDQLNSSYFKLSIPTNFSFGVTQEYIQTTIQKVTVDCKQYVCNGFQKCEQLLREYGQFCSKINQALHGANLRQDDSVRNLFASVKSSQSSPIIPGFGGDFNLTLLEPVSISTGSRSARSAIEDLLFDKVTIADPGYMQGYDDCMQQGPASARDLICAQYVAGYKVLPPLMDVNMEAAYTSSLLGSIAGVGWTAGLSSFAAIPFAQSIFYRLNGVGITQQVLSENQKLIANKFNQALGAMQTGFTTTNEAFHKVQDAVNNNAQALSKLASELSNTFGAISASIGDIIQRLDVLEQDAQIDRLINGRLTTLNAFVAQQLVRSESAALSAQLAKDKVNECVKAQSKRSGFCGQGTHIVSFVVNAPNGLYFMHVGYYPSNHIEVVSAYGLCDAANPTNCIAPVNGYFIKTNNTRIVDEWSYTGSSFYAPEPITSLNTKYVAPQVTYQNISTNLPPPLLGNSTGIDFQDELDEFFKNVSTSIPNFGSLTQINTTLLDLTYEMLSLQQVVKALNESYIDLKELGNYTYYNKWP

B1: COV_1201 (antibody, V domains shown)
VH: QVQLVQSGAEVKKPGASMKVSCKASGYTFTGYYIHWVRQAPGQGLEWMGRINPNSGGTNYAQKFQGRVTMTRDTSISTAYMELSRLRSDDTAVYYCAREYYYVPYGMDVWGQGTTVTVSS
VL: QSALTQPASVSGSPGQSITISCTGTSSDVGGYNFVSWYQHHPGKAPKLMIYEVSNRPSGVSNRFSGSKSGNTASLTISGLQAEDEADYYCSSYTSSSTYVFGTGTKVTVL
notes: human IgG1
B2: COV_2093 (antibody, V domains shown)
VH: EVQLVESGGGLVQPGGSLRLSCAASGFMFNRFWMSWVRQAPGKGLEWVTNIKQDGSEKNYVDSVKGRFTISRDNAKNSLYLQMNSLRAEDTAVYYCARDGLYYDFRSPSPFYGMDVWGQGTTVTVSS
VL: DIQMTQSPSSLSASVGDRVTITCRASQSISSYLNWYQHKSGKAPKLLIYAASRLQSGVPSRFSGSGSGTDFTLTIVSLQPEDLATYYCQQSYSTPRTFGGGTKVEIKR
notes: human IgG1
B3: COV_2172 (SEQ ID NO:872/877) (antibody, V domains shown)
VH: EVQLVESGGGVVQPGRSLRLSCAPSGFTFSTYAMHWVRQAPGKGLEWVAVISYDGSIKYYADSVKGRFTISRDNTMNTVFLQMNSLRAEDTAVYFCAKGGERWELFTSFDYWGQGTQVTVSS
VL: QSALTQPRSVSGSPGQSVTISCTGTSSDVGGYNYVSWYQQHPGKAPKLMIYDVSKRPSGVPDRFSGSKSGNTASLTISGLQAEDEADYYCCSYAGSYTFVFGGGTKLTVLG
B4: COV_1149 (antibody, V domains shown)
VH: QVQLVESGGGVVQPGRSLRLSCAASGFTFSSYGMHWVRQAPGKGLEWVAVISYDGSNKYYADSVKGRFTISRDNSKNTLYLQMNSLRAEDTAVYYCAKTGGGYSYGLGNVWGQGTLVTVSS
VL: QSALTQPASVSGSPGQSITISCTGTSSDVGGYNYVSWYQQHPGKAPKLMIYDVSNRPSGVSNRFSGSKSGNTASLTISGLQAEDEADYYCSSYTSSSTLVVFGGGTKLTVLG
notes: human IgG1
B5: COV_2143 (antibody, V domains shown)
VH: EVQLVESGGGVVQPGRSLRLSCAASGFTFNSFAMLWVRQAPGKGLEWVALFSYDGSNKYYADSVKGRFTISRDNSKNTLYLQMNNLRAVDTAVYYCARASPYDINGYYLHRIAFDIWGQGTMVTVSS
VL: QSVLMQPPSVSGAPGQRVTISCTGSSSNIGAGYDVHWYQQLPGTAPKLLMYGNSNRPSGVPDRFSGSKSGTSASLAITGLQAEDEADYYCQSYDSGLSGWVFGGGTKLTVLG
notes: human IgG1
B6: COV_3077 (antibody, V domains shown)
VH: QVQLQESGPGLVKPSETLSLTCAVSGYSISSGYYWGWIRQPPGKGLEWIGSIYHSGSTYYNPSLKSRVTISVDTSKNQFSLKLSSVTAADTAVYYCARALYDAFDIWGQGTMVTVSS
VL: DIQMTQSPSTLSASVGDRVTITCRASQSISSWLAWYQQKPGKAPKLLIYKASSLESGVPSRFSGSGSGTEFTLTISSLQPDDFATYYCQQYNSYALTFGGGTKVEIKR
notes: human IgG1
B7: COV_2014 (antibody, V domains shown)
VH: QVQLVQSGAEVKKPGASVKVSCKVSGYTLTELSMHWVRQAPGKGLEWMGGFDPEDGETIYAQKFQGRVTMTEDTSTDTAYMELSSLRSEDTAVYYCATGKINYYDSSGYYGTFDYWGQGTLVTVSS
VL: AIQLTQSPSSLSASVGDRVTITCRASQGISSYLAWYQQKPGKAPKLLIYAASTLQSGVPSRFSGSGSGTDFTLTISSLQPEDFATYYCQQLNSYHLTFGQGTRLEIK
notes: human IgG1
B8: COV_2077 (antibody, V domains shown)
VH: QVQLQESGPGLVKPSETLSLTCTVSGGSISSYSWSWIRQPPGKGLEWIGYIYYSGSTNYNPSLKSRVTISVDTSKNQFSLKLSSVTAADTAVYYCARESMGRYSLELRQPESAFDYWGRGTLVTVSS
VL: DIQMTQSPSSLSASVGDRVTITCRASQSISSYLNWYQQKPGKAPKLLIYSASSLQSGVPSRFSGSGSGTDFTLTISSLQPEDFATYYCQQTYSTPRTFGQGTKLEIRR
notes: human IgG1
B9: COV_1172 (antibody, V domains shown)
VH: QVQLQESGPGLVKPSETLSLTCTVSGGSIRSYYWSWIRQPPGKGLEWIGYIYYSGSTNYSPSLKSRVTISVDTSKNQFSLKLNSVTAADTAVYYCARRGLGYCSGDSCSNAFDIWGQGTMVTVSS
VL: DIQMTQSPSSLSASVGDRVTITCRASQSISSYLNWYQQKPGRAPELLIYDASSLQSGVPSGFSGSGSGTDFTLTISSLQPEDFATYYCQQSYSTPFTFGPGTKVDIKR
notes: human IgG1
B10: COV_1151 (antibody, V domains shown)
VH: QVQVQQWGAGLLKPSETLSLTCAVYGGSFNNYYWSWIRQPPGKGLEWIGEINHSGSTNYNPSLMSRVTISVDTSKNQFSLKLTSVTAADTAVYFCARGLPVTTFFSSYYGMDVWGQGTTVTVSS
VL: EIVLTQSPGTLSLSPGERATLSCRASQSVSRTYLAWYQQKPGQAPRLLIYGASSRATGIPDRFSGSGSGTDFTLTISRLEPEDFAVYYCQHYGSSPWTFGQGTKVEIRR
notes: human IgG1
B11: COV_1166 (antibody, V domains shown)
VH: EVQLVESGGGLVQPGGSLRLSCAVSGFTFRSFWMSWVRQTPGKGLEWVANIKEDGSEKYYVDSVKGRFTISRDNAKNSLYLQMNSLRAEDTAVYYCAREGRWELLGFAFDIWGQGTMVTVSS
VL: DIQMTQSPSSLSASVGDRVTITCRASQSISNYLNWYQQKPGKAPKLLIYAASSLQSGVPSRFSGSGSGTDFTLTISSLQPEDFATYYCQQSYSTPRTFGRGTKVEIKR
notes: human IgG1
B12: COV_1144 (antibody, V domains shown)
VH: EVQLVESGGGLVQPGGSLRLSCAASGFTFRSFWMSWVRQAPGKGLEWVANIKEDASEKHYVDPVKGRFTISRDNAKNSLYLQLNSLRAEDMAVYYCARVGRGYCTNGLCYTAFEYWGQGTLVTVSS
VL: DIQMTQSPSSLSASVGDRVTITCRTSQSISNYLNWYQQKPGKAPKLLIYAASSLQSGVPSRFSGSGSGTDFTLTISSLQPEDFATYYCQQSYSTAWTFGQGTKVEIRR
notes: human IgG1
B13: COV_2048 (antibody, V domains shown)
VH: QVQLQESGPGLVKPSETLSLTCTVSGGSISNTSYYWGWIRQPPGKGLEWIGSIYRSGSTYYNPSLKSRVTISIDTSKNQFTLKLSSVTAADTAVYYCARDYYGDYSAKPMEYWGQGTLVTVSS
VL: QSALTQPRSVSGSPGQSVTISCTGTSSDVGGYNYVSWYQQHPGKAPKLLIYDVSKRPSGVPDRFSGSKSGNTASLTISGLQAEDEADYYCCSYAGSYVVFGGGAKLTVLG
notes: human IgG1
B14: COV_1170 (antibody, V domains shown)
VH: QVQLVESGGGVVQPGRSLRLSCAASGFTFSTYAMHWVRQAPGKGLEWVALISYDGSNKYYADSVKGRFTISRDNSKNTLDLQMNSLRAEDTAVYYCARSLGGYRTGFDYWGQGTLVTVSS
VL: DIQLTQSPSFLSASVGDRVTITCRASQGISSYLAWYQQKPGKAPKLLIYAASTLQSGVPSRFSGSGSGTEFTLTISSLQPEDFATYYCQQLNSYPPFTFGPGTKVDIKR
notes: human IgG1
B15: COV_2056 (SEQ ID NO:792/797) (antibody, V domains shown)
VH: EVQLVESGGGVVQPGRSLRLSCAASGFTFSIYGMHWVRQAPGKGLEWVALISYDGTNKYYADSVKGRFSISRDDSKNTLYLQMNSLRPEDTAVYYCAKVLMMGDSSGFSLGDAFDIWGQGTMVTVSS
VL: DIQMTQSPSSVSASVGDRVTITCRASQGISNWLAWYQQKPGKAPKLLIYAASSLQSGVPSRFSGSVSGTDFTLTISSLQPEDFATYYCQQANSFPLTFGGGTKVDIKR
B16: COV_2174 (antibody, V domains shown)
VH: EVQLAESGGGLVKPGGSLRLSCAASGFTFSDYYMSWIRQAPGKGLEWVSYISSSGSTIYYADSVKGRFTISRDNAKNSLYLQMNSLRAEDTAVYYCARDWSVVVVPAAPAVDVWGQGTTVTVSS
VL: B15 VL with V11L, W32Y, Y36F, L46S, R61K, V66G, A91Y, F94Y, D105E
notes: human IgG1

This assay has as its target T1, MERS-CoV spike antigens (bead panel). Kind of assay: multiplex bead assay.
With B1, the binding result was “no binding”.

With B2, the binding result is reported as “no binding”.

Turning to B3, the binding result was “no binding”.

Take B4: the binding result is “no binding”.

As to B5, the binding result is given as “no binding”.

B6: the binding result is “no binding”.

For B7, the binding result is reported as “no binding”.

Regarding B8, the binding result was “no binding”.

B9: the binding result is on record as “no binding”.

For the molecule B10, the binding result is given as “no binding”.

Turning to B11, the binding result is “no binding”.

Take B12: the binding result is on record as “no binding”.

As to B13, the binding result was “no binding”.

For B14, the binding result is “no binding”.

As to B15, the binding result is on record as “no binding”.

Turning to B16, the binding result is “no binding”.
